Laboratory results reported in patent publication US8895526B2, “Identification of RNAI targets and use of RNAI for rational therapy of chemotherapy-resistant leukemia and other cancers” (Cold Spring Harbor Laboratory, priority 2009, dated 2014).

B1: BRAF.3750: neutral control shRNA, SEQ ID NO: 191 (nucleic acid)
chain: TGCTGTTGACAGTGAGCGCTAGCATAATGACAATTATTTATAGTGAAGCCACAGATGTATAAATAATTGTCATTATGCTAATGCCTACTGCCTCGGA
B2: Kit.1241: neutral control shRNA, SEQ ID NO: 194 (nucleic acid)
chain: TGCTGTTGACAGTGAGCGATTCCGTGACATTCAACGTTTATAGTGAAGCCACAGATGTATAAACGTTGAATGTCACGGAAGTGCCTACTGCCTCGGA
B3: Mn1.5760: neutral control shRNA, SEQ ID NO: 207 (nucleic acid)
chain: TGCTGTTGACAGTGAGCGCTTGGTTTAGCAGGAAGAATAATAGTGAAGCCACAGATGTATTATTCTTCCTGCTAAACCAAATGCCTACTGCCTCGGA
B4: Ptgs2.2058: neutral control shRNA, SEQ ID NO: 210 (nucleic acid)
chain: TGCTGTTGACAGTGAGCGCCCGGTGTTTGTCCTTTAAATATAGTGAAGCCACAGATGTATATTTAAAGGACAAACACCGGATGCCTACTGCCTCGGA
B5: Ptgs2.1082: neutral control shRNA, SEQ ID NO: 209 (nucleic acid)
chain: TGCTGTTGACAGTGAGCGCCAAGATAGTGATCGAAGACTATAGTGAAGCCACAGATGTATAGTCTTCGATCACTATCTTGATGCCTACTGCCTCGGA
B6: BRAF.5053: neutral control shRNA, SEQ ID NO: 193 (nucleic acid)
chain: TGCTGTTGACAGTGAGCGCTAGGGTGATGTCTCACTTGAATAGTGAAGCCACAGATGTATTCAAGTGAGACATCACCCTATTGCCTACTGCCTCGGA
B7: Trp53.1224: neutral control shRNA, SEQ ID NO: 214 (nucleic acid)
chain: TGCTGTTGACAGTGAGCGCCCACTACAAGTACATGTGTAATAGTGAAGCCACAGATGTATTACACATGTACTTGTAGTGGATGCCTACTGCCTCGGA
B8: Mn1.2545: neutral control shRNA, SEQ ID NO: 206 (nucleic acid)
chain: TGCTGTTGACAGTGAGCGCCAGCGCGGTTGCAGCCGGTAATAGTGAAGCCACAGATGTATTACCGGCTGCAACCGCGCTGTTGCCTACTGCCTCGGA
B9: Ptgs2.3711: neutral control shRNA, SEQ ID NO: 212 (nucleic acid)
chain: TGCTGTTGACAGTGAGCGCAACGTTCATGGATAAATTCTATAGTGAAGCCACAGATGTATAGAATTTATCCATGAACGTTATGCCTACTGCCTCGGA
B10: Ptgs2.284: neutral control shRNA, SEQ ID NO: 211 (nucleic acid)
chain: TGCTGTTGACAGTGAGCGAAAGAATCAAATTACTGCTGAATAGTGAAGCCACAGATGTATTCAGCAGTAATTTGATTCTTGTGCCTACTGCCTCGGA
B11: BRAF.3826: neutral control shRNA, SEQ ID NO: 192 (nucleic acid)
chain: TGCTGTTGACAGTGAGCGCCCCATTGTTTCTTCCAACTTATAGTGAAGCCACAGATGTATAAGTTGGAAGAAACAATGGGATGCCTACTGCCTCGGA
B12: Mn1.5864: neutral control shRNA, SEQ ID NO: 208 (nucleic acid)
chain: TGCTGTTGACAGTGAGCGCATCGCTATTGCACATGTATAATAGTGAAGCCACAGATGTATTATACATGTGCAATAGCGATTTGCCTACTGCCTCGGA
B13: Renilla.713: neutral control shRNA, SEQ ID NO: 213 (nucleic acid)
chain: TGCTGTTGACAGTGAGCGCAGGAATTATAATGCTTATCTATAGTGAAGCCACAGATGTATAGATAAGCATTATAATTCCTATGCCTACTGCCTCGGA
B14: Suz12.1676: shRNA, SEQ ID NO: 75 (nucleic acid)
guide: TGCTGTTGACAGTGAGCGATAGGATAGATGTTTCAATCAATAGTGAAGCCACAGATGTATTGATTGAAACATCTATCCTAGTGCCTACTGCCTCGGA
B15: Smarcd1.1858: shRNA, SEQ ID NO: 70 (nucleic acid)
guide: TGCTGTTGACAGTGAGCGCTAGGACCTCTAGATAGTGTTATAGTGAAGCCACAGATGTATAACACTATCTAGAGGTCCTATTGCCTACTGCCTCGGA
B16: Eed.1829: shRNA targeting Eed; probably Eed.1820, SEQ ID NO: 227 (nucleic acid)
guide: TGCTGTTGACAGTGAGCGCTAGAAGTAATGTATCTTGCTATAGTGAAGCCACAGATGTATAGCAAGATACATTACTTCTATTGCCTACTGCCTCGGA
B17: shPCNA.538: shRNA, SEQ ID NO: 56 (nucleic acid)
chain: TGCTGTTGACAGTGAGCGCGGAGTACAGCTGTGTAATAAATAGTGAAGCCACAGATGTATTTATTACACAGCTGTACTCCTTGCCTACTGCCTCGGA
B18: Orc2mil903: shRNA targeting ORC2, SEQ ID NO: 18 (nucleic acid)
chain: TGCTGTTGACAGTGAGCGAGGAACTGATGGAGTAGAGTATTAGTGAAGCCACAGATGTAATACTCTACTCCATCAGTTCCCTGCCTACTGCCTCGGA
B19: mi550: shRNA targeting ORC1, SEQ ID NO: 17 (nucleic acid)
chain: TGCTGTTGACAGTGAGCGCGGAAATATTCTGGTATGATTATAGTGAAGCCACAGATGTATAATCATACCAGAATATTTCCTTGCCTACTGCCTCGGA
B20: Orc2mil981: shRNA targeting ORC2, SEQ ID NO: 19 (nucleic acid)
chain: TGCTGTTGACAGTGAGCGAGAGGCTTGAAGCTTTCCTTTATAGTGAAGCCACAGATGTATAAAGGAAAGCTTCAAGCCTCCTGCCTACTGCCTCGGA

Each molecule was assayed on immortalized murine embryonic fibroblasts (Mef) (assay: Pooled negative selection RNAi screening (deep sequencing)). Settings: deep sequencing reads, on dox compared to initial representation.
Format: cell-based
How it was run: (§1)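 A pool of 1230 tet-regulated shRNAs (TRMPV-type) was retrovirally transduced at mostly single copy and ~1000-fold representation into tet-on MLL/AF9+Nras AML cells or immortalized murine embryonic fibroblasts, then cultured on or off doxycycline. shRNA-expressing cells were FACS-sorted, and shRNA representation was quantified by PCR and deep sequencing of genomic DNA, with depletion on dox compared against t0 and off dox.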

Molecule	Fold depletion in Mef [Fold]
B1	1.08
B2	0.99
B3	0.91
B4	1.27
B5	0.51
B6	0.33
B7	0.84
B8	0.29
B9	1.46
B10	1.21
B11	0.87
B12	1.09
B13	1.02

Each molecule was assayed on normal hematopoietic cells (assay: Dual-color competition assay of hematopoietic reconstitution in vivo). Settings: 4 weeks after transplantation, LMN-GFP vs mCherry control.
Procedure: LMN vectors harboring shRNAs are transduced into fetal livers. Infected cells are subsequently transplanted into lethally irradiated recipients. This assay compares the relative contribution of the experimental shRNA (in an LMN vector harboring a GFP marker) to a control, neutral shRNA (in an LMN vector harboring a red fluorescent protein marker (mCherry)). The effect of the experimental shRNA on hematopoesis is assessed by the ratio of these two markers in subsets of peripheral blood cells, or bone marrow or spleen, measured at 4 weeks.
As an additional verification that therapy resistant AML leukemias harbor a unique sensitivity to inhibition of the identified epigenetic pathways, the influence of the epigenetics shRNAs on normal hematopoiesis was also examined in vivo following retroviral transduction of LMN (MSCV-miR30/shRNA-PGK-Neo-IRES-GFP; constructed by inserting a miR30-cassette and a PGK-NeomycinR-IRES-GFP cassette in the MSCV-backbone (Clontech)) into E13.5 fetal livers and subsequent transplantation of infected cells into lethally irradiated recipients (FIG. 27). This assay compares the relative contribution of the experimental shRNA vector (linked with GFP) to control, neutral shRNA LMN vector that harbors the red fluorescent protein (mCherry). At 4 weeks following transplantation of the mixed GFP+ and mCherry+ cells into recipient animals, the ratio of these two colors is measured in subsets of peripheral blood cells of various hematopoietic lineages or in bone marrow and spleens by co-staining with surface markers (e.g. Mac1, Gr1 for myeloid, B220 for B-lymphoid).

Molecule	impact on proliferation of normal hematopoietic cells in vivo
B14	little, if any impact
B15	little, if any impact
B16	little, if any impact

These molecules were tested on tet-on competent MLL/AF9+Nras AML (assay: Pooled negative selection RNAi screening (deep sequencing)). Settings: deep sequencing reads, On Dox compared to T0.
Format: cell-based, mouse
How it was run: as §1

Molecule	Fold depletion in AML [Fold]
B1	0.76
B2	1.88
B3	0.38
B4	1.78
B5	0.51
B6	0.66
B7	0.10
B8	0.81
B9	1.38
B10	0.34
B11	0.92
B12	0.61
B13	1.29

These molecules were tested on Hepa1.6 cells (assay: In vitro competition assay in Hepa1.6 cells). Settings: five passages 1:8.
Format: cell-based, mouse
Source text: Two days after transduction with a GFP-tagged vector, the number of fluorescent cells was quantified. Cells were passaged 1:8 five times, and the number of GFPpositive transduced cells was quantified at each passage.

Molecule	competition with uninfected GFP-negative cells
B17	outcompeted by uninfected, GFP-negative cells

What follows are molecules tested on HCT116 cells (assay: HCT116 proliferation assay: cell counts of shRNA-transduced cultures). Settings: 5 days post-infection; normalized to EBNA1mi1666 and Lucifmi203 cultures.
Format: cell-based, human
Procedure: HCT116 cultures in 24-well plates were infected separately with amphotropic retrovirus encoding 254 different shRNAs targeting 83 cell cycle and/or E2F regulated genes. On day 1 following infection each culture was suspended in media containing 1.5 μg/mL puromycin to select for cells transduced with the hairpins, then seeded to 6-well plates. On day 5 following infection, cells in each culture were suspended in media and counted using a hemacytometer. Results for each culture were normalized to the average of the number of cells counted in cultures transduced with hairpins targeting either of two different genes not endogenous to HCT116 cells (EBNA1 and Ff-luciferase).
About 24 hours prior to infection, 150,000 HCT116 cells were seeded per well of a 24-well plate in 0.4 mL DMEM+10% FBS. At the time of the first round of infection, culture media was aspirated from each HCT116 culture and 0.5 mL media containing virus, obtained from ˜36-hour post-transfection packaging cell culture as described above, was added to each HCT116 culture. Each HCT116 culture was infected with virus encoding a particular shRNA. […]
About 24 hours after the second round of infection of the HCT116 cultures, cells from each culture were suspended and seeded to 6-well plates in 2 mL DMEM+10% FBS+1.5 μg/mL puromycin per well. […] Following two more days of growth (day 5 post-infection), cells in each culture were suspended in complete DMEM and cell numbers per culture were counted using a hemacytometer. […]
In each experiment, HCT116 cells were also transduced with hairpins against EBNA1 (EBNA1mi1666) and Ff-luciferase (lucifmi203). […] Similar to cultures transduced with other shRNAs, on day 5 post-infection, HCT116 cells in cultures transduced with either EBNA1mi1666 or Lucifmi203 were suspended and counted using a hemacytometer. […]
The average cell number in HCT116 cultures transduced with EBNA1mi1666 and Lucifmi203 was calculated for each experiment and cell numbers in cultures transduced with the other shRNAs in the given experiment were normalized to this value. […]

Molecule	Cell # in culture/average cell number in negative control cultures
B18	0.7115
B19	0.8719
B20	0.8496
